Bounds are passed on as bounds.

This series is described as follows: soluble fraction after stress (log2 fold change); higher = more stays soluble; pooled small domains, quantitative proteomics. The note with it: stress: pH 4. In short, it runs like this: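 Custom libraries of small protein domains were pooled and exposed to pH 4. High-throughput quantitative proteomics then measured the log2 fold change in the amount of each domain still soluble, with higher values meaning more stayed soluble. This soluble-fraction fold change stands for aggregation propensity.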

“HMRAFTPSEAQVAHARRVMEAFWQHQREGHGAFALDGKMVDAPIVKAAARVLARAGLQDPNHPIHLA”: the “soluble fraction (log2)” value was 0.0106.

Turning to “HMRALPFSFANRHGVLIREISDGVAHAVYRIGSSPLGLAEARRFVGMPLMLTPVAREAFDSLLQQTYEQG”, the “soluble fraction (log2)” value is -0.612.

Turning to “HMRAPEIEAARSDLDVGQTVQIVRHLHGNQYEVFYRGAQWQAEAVGSSGANDAQTAVITGKNGNILLIQI”, the “soluble fraction (log2)” value was -0.297.

Take “HMRAVPTKLAPFVEVLKAMLEADGHRPKAQRRTAKALHLELISRGYAGGYTRLTDYIRDWRQQQG”: the “soluble fraction (log2)” value is -0.411.

For “HMRDANYFINPIHEWQKRYEALRASFVDRLPAQAVAQRFGYTITYIHLLRHQFKSGKIDFSEPVPEG”, the “soluble fraction (log2)” value is -1.91.

Turning to “HMRDFTQPQTASIGPRMREALARGTMTVEELREQFRTQEFPHESVRTAFLEELERVAAELGLA”, the “soluble fraction (log2)” value was -1.62.

With “HMRDISTDTSAWTFQDIKRYYDPQDLLTEKQVGQALSLIKGRNLNPLLNEVYIVAYKKKNGGAEFSLIV”, the “soluble fraction (log2)” value was -0.286.

In the case of “HMRDPLNTGFRQTLKDIVNSLPKNELYSPGVREEYIYPKIGVTSLGMEASMVLNGLISSRRKNIELKEKN”, the “soluble fraction (log2)” value came out at 0.179.

On to “HMRDPVDKDNYLGDWDKNKTYPAGYVMTFGDKNYLALQEVPAGTKPGATDPDPFWVLDTGKTLKD”, for which the “soluble fraction (log2)” value was 0.163.

In the case of “HMRDQARQFFIDTWAKFQRHDALTPLEEKTAAIIALHPEYHRVLQNPESFITTDWRPESGDINPFMHL”, the “soluble fraction (log2)” value is -0.803.

As to “HMRDSYEVEGRIASVSPAAGTFVVAGVTVDYTGARFVGGTVAQLAPGVKVEVEGRRLANGTLQAREIEFD”, the “soluble fraction (log2)” value is -0.12.

In the case of “HMRDSYTFEDIEKLKDSYLQDSEKALEKLISIYEDTNQSLAIRTAALDIITDSQDPTFKLALEKIIS”, the “soluble fraction (log2)” value is -0.751.

Consider “HMRDTAKTLLAMEVVGENNKKNLQAFGIQKGDQNYQTAVVVRLMQKALMEGDTSAIRLIGELTGD”, for which the “soluble fraction (log2)” value was -0.44.

For “HMRDTLSKQLLTEEMVLQFIREMREHDPGIGGEKLHAMYLGRFGRDYEYMVGRDKMEMIIAENNLNVR”, the “soluble fraction (log2)” value was -1.05.

In the case of “HMRDYDFGNLLYKLRIESGYTQKDIADMLGVTDKAVSKWENGIAKPTTNNIKLLSTIYNVSVEELLNG”, the “soluble fraction (log2)” value is -0.754.

With “HMRDYKTALQEWVQRTPGQPIAYRLVDELGPDHARVFVMEVTVGGQSAGQGRGRTKKEAEQLAARAALEKL”, the “soluble fraction (log2)” value is -0.0915.

For “HMREEIESVYKTLAVTEIPYIARGNSARLGSGIQTVYDFYRMEGMQVSKILGRNGSVLWLELHG”, the “soluble fraction (log2)” value was -0.159.

For “HMREEMYGLIGFITTSEVTDTFGQMEIKLENEPEMRINVRTNPGESLARGDAAKIISFNNSNGTFLVELTK”, the “soluble fraction (log2)” value is -0.564.

Regarding “HMREFQVMKQELQEMVHQRLDMSTELSDEAIGDVIDEVIMEKSRNMYISSVTKLTLRQELFNAIR”, the “soluble fraction (log2)” value is -2.14.

For the sequence “HMREGRERRLSQLLSYLRTHHILTRSEYVKLTGLSPTAASSELKTFVTAGHIVRKGIASHSTYRLPH”, the “soluble fraction (log2)” value came out at 0.00826.

“HMREKLKEYVHLLFAGTVGKEDMEQEILQNTLDRFDDWVARGFSEEDAYRKAVSGIGDIDALLG”: the “soluble fraction (log2)” value is -2.07.

Turning to “HMREPDPELTASIKSMAESNDQSERLVALAQLSEQRAVDPEVADQILLIALLDEDPIIRGQAVYA”, the “soluble fraction (log2)” value was found to be 0.0401.

“HMRERLPFGFAQSKKVVLLSTESDTPKVLSVNWPSLDLYAELKRVIGRAFLLEIVSEEEFQAQVSDAYQRD”: the “soluble fraction (log2)” value is -1.48.

On to “HMREVGVPNLRGLTAEEAQIVLSNAGLNLRTEPIRRVHETITVGRIAEQDPMPDLTIRSQRSVTTWLSSGP”, for which the “soluble fraction (log2)” value is -0.268.

Turning to “HMREVTVGSAVRLKKGAKTYSGGSLASFVYERNHQVTQLSGDRAVISFKGTVVAAVHKDDLIL”, the “soluble fraction (log2)” value is -0.0626.

With “HMREVVLNRIGSVAVQRATTRTWEEWVVTLDAEGMRGKEHRDVVGHLLRAHELTSWWAQMVSVGYEQSRGQ”, the “soluble fraction (log2)” value is -0.155.

Regarding “HMREYRITAEEGHPRIDVFLAGRPEIGLSRSRIQALIDEGQVTLNGAMPKARQAVNPGDVIVVRVPDPE”, the “soluble fraction (log2)” value is -0.336.

On to “HMRFEWFDTLTDREKEIFGLIATGFDNQQIADRLQLAEQTVRNNISTIYSKLEVKDRFEIIRLANTI”, for which the “soluble fraction (log2)” value was -1.29.

With “HMRFKPLAEILAAVQTRYAGRVLDVELDRDQAGRNVYEVKLLAADGSRREIHIDAVTGKEVSL”, the “soluble fraction (log2)” value amounted to 0.178.

As for “HMRGAIKMAEEQMAGHKKIGSISGTAPTQGELEKKFAMAAAQMGARYYVITGLSNNNYAFGNADIY”, the “soluble fraction (log2)” value was -0.194.

Regarding “HMRGDEDTGVWPTPMKRAYIDSLLKGYPTGVTMIVKPPGASHTTKWMILDGANRARALRDFMNDEFMI”, the “soluble fraction (log2)” value is -0.155.

Take “HMRGFTDFEHIEKEYLATIEKLNWPDGVTLPDKLEGEDTGTSFQVGYGDTRASNLWEYSWMK”: the “soluble fraction (log2)” value is -1.15.

As to “HMRGIPEEVADVAIQWVARLDSNEISDADRAAFFAWLDASPINRWAYNDISESWAKLSILNEMGH”, the “soluble fraction (log2)” value is -1.8.

“HMRGLFTVYMVGEKASRVGELDEEMVYESRIGDVFALGATSWRIEEITHDRVLVSPAYGQPGRLPFWH”: the “soluble fraction (log2)” value was -1.72.

For the sequence “HMRGLGDLEPVDSLGKIRIDDGHMVLAFGRHKGRHLSEVQAEDPRYIHWLLSPKGIEDVEAREKVKVYLEG”, the “soluble fraction (log2)” value is -0.136.

For “HMRGLLSQREHDVLDLVARGFSYGEIARLRSISVSTVQTHIKNLYRKLAVSSRTEAVYEAKQMGI”, the “soluble fraction (log2)” value was -0.755.

“HMRGLVPEIVGTLEGEIRAGTLAVGQKLPTEAEIMARFDVSRTVVREALSRLQASDLVETRHGIGTFVSAR”: the “soluble fraction (log2)” value is 0.163.

“HMRGPDLSKDFHEYISSQWMFFGRNAYQIAEQINKDTQLMSKYGKTTPSGVHYHIKQIQQEMEN”: the “soluble fraction (log2)” value is -0.984.

For the sequence “HMRGPPQVLVDVELEDGRVGQIGVRNGDDATELAETFVRAFRLEQSFVGRLANVIQGKIRELLHSQ”, the “soluble fraction (log2)” value was -1.17.

With “HMRGSRIFSGDVSPLTLPANSPFFSGYTEFKPGDVYVERSATNIAMWEWKSQPGGYTWVKTADIA”, the “soluble fraction (log2)” value was 0.22.

In the case of “HMRGYGDRIRILRERAGITIEQLAERLGVAPYFIRRTELSEVYPTKPYIEALADVLNIDASYLARHI”, the “soluble fraction (log2)” value was -0.972.

For “HMRHYVLKENNGVIAIYKVNQENEAVFKENTQIQVQYLPEVDLINLKKGIYAIGEEKLNSILEDF”, the “soluble fraction (log2)” value was -0.892.

Take “HMRIDSFEDARRRFEYDYLTRLLKLTQGSVTQAAKLAKRNRTEFYKLLQRHGIEAAHFKPTS”: the “soluble fraction (log2)” value is ≥ 0.43.

For the sequence “HMRIDVWLAENGFAPSRQKAQDLIAAGRVFQTDPSGRRQKVSKASAAVDPALSPKIEVIPDPE”, the “soluble fraction (log2)” value turned out to be 0.068.

As for “HMRILGIDPGYAITGYSIIDYVGNKFKLIDSGAVLTKAGVSFPLRLTKIYDDLSMIIDEYKPDA”, the “soluble fraction (log2)” value is -0.42.

Turning to “HMRIPANIAEDIKKLQKKEHHLHHHLGRDPFDDELAKELEWDTEQVSEIRQMIKNPELLEELLEAEREEE”, the “soluble fraction (log2)” value is -1.2.

Consider “HMRITEQRRTLAKLFADTPGYLSPKDVYDYMGRFYPGLSFDTVYRNLRLLDELGVLEQVVFEDGVKFK”, for which the “soluble fraction (log2)” value is -0.677.

As for “HMRIWTISDLYKNVEDKKVSLAVFSEDNDSNKVNVLDINGEEHSVNLLKADLPTLVDLFRKNDVRFAVRSN”, the “soluble fraction (log2)” value was determined as 0.259.

For “HMRIWTPEMIKEYIISSNGKEPLNSHYYSTNHPSIYAAAERIFGSWGNAINAAGLDYNAIRKYK”, the “soluble fraction (log2)” value is -0.0687.

Regarding “HMRIYFSPSEIGFYHESDKQAYLLAGTWPNDLLEISEKWFLYLLEGQQKGKVITVNDYDQPVLVD”, the “soluble fraction (log2)” value was -2.28.

Consider “HMRIYTKDEYLAELSRYLHKLPQDDYESAMAYFREYFEEAGPENEAQAMRDLGTPKEAASEILQNLLH”, for which the “soluble fraction (log2)” value was -0.162.

Take “HMRKDYTVLYSAVNAEEATEIVSKLQESGVAYQYKDNGDVLVDKKQVDKVRAQLAQEGYPKS”: the “soluble fraction (log2)” value is -0.204.

As to “HMRKIEDVLRLHAQGMSTRRIALATGVGKTTVIEYLRRAAVAGLSWPLPEGLDEEALERRVFPPPP”, the “soluble fraction (log2)” value came out at 0.282.

Regarding “HMRKIFPFNPNFITDQRGYFLGMSTSEIDRLHHFRAANKWIQSAQEFQVVTKVSNAWLSEFSPYFNFP”, the “soluble fraction (log2)” value amounted to 0.298.

Consider “HMRKKTYEIITDDLRRMIEAGLIRPGEKLGAIDQLAAKYRVGRSTVREALSHLKALGLVESRQGGGTYVTK”, for which the “soluble fraction (log2)” value stood at 0.109.

For “HMRKNVAGITPNVYGMGLKDAVYLLENAGYRVKVNGRGNVVRQSINSGTRIIKGQLIILDLD”, the “soluble fraction (log2)” value is 0.0848.

For the sequence “HMRKSNADALDGKTGIVKEEIKTGGYGYVGIDGDMWRSISESGEAIPAGTKVVVISHESIILTVKPA”, the “soluble fraction (log2)” value is ≥ 0.43.

With “HMRKTLASTAYDSIKAGIVSGEINNNLLLSENTLAKILNMSRTPIREAIKRLEAESYLKSVDGVGLIVQE”, the “soluble fraction (log2)” value is -0.314.

For the sequence “HMRKTLSQEAYEKIKQNLEDGVYQGYINGRQVARDLDIGFTPVREAFLQLQSEGLIRKEDNVGYFV”, the “soluble fraction (log2)” value was -0.183.

On to “HMRKTYHVDAYQDDKWWVLQVQEMPNAISQVKSLDQADEWIREAINIVSNEPEDSFDVVIIPV”, for which the “soluble fraction (log2)” value was -1.54.

Consider “HMRKVTDTHELSSVVKSVIDQWEEKAAEYRAGKSGLLGFFVGEVMKKTGGAADPEAAKSLLQDRLD”, for which the “soluble fraction (log2)” value is -0.285.

Take “HMRKYEAVPASVVPAQIQEYVAKSNFPNQYIRKIERNKYTWEIELSNGLEIKFDRQFNVIGFD”: the “soluble fraction (log2)” value came to 0.338.

On to “HMRLGQLQSVEEPKFIEVHSGKQGDIGEQTIVEYEIDAKYATGDATINLKLLFRDGLFEIYNFNFSSEALL”, for which the “soluble fraction (log2)” value was -0.259.

As for “HMRLNIRTKNNYSYYTIIKDYTNLNGKRTTTIFEKLGNQQQVEERFGKVNTIENIKKYIEELNNE”, the “soluble fraction (log2)” value amounted to 0.22.

As for “HMRLPAISYSFARKHGVVLRLDGDRPVASLREGADPAILIEVKRHLDGAMGVEKVSEAAFDQLLSTTYA”, the “soluble fraction (log2)” value is -0.436.

For “HMRLPNGYGSITKLSGKRRKPFMVRITTGYDNEGKQLMSVLGYYATRTEALAVLAEYNKNPYNPI”, the “soluble fraction (log2)” value amounted to 0.109.

Consider “HMRLPNHYGSVVKLSGKRRRPFMVRGGVYGYDDRGYPQYVIVGYTETREQGLTMLAEYNRNP”, for which the “soluble fraction (log2)” value was -0.319.

Turning to “HMRLPVELTDREVEVLRLLAQAMSNGEIARELYIGEATVKTHVSNVLQKLGARDRVAAVVWAHRYGL”, the “soluble fraction (log2)” value was -1.16.

With “HMRLSAADLQSYLKGMDYPASRQDLIAHARGHNAPEEAVATLEQFSDRTYRSAADVSVEFGRE”, the “soluble fraction (log2)” value turned out to be 0.309.

(Values after the domain aggregation screens of Martell et al. (2025).)
